The results in this text go back to the supplement of paper PMC10724198.

± gives the standard deviation of the averaged measurements.
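Further: PSI is a weighted mean of sequencing reads over stability bins, variants kept only with over 10 reads, mCherry proximal and sfGFP distal, peptide attached via GGGS linker.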

The subject of this series is Saccharomyces cerevisiae. The series can be described thus: protein stability index of tFT-peptide fusion (C-terminal peptide) (PSI (0-1 scale)); higher = more stable (slower turnover). The conditions noted are these: genetic background: wild type; temperature: 30 C.
NILTIYRTMKSR yielded a protein stability index of 0.6855 ± 0.0056.
For NKFSAFSPETWS, the protein stability index worked out at 0.7385 ± 0.00092.
Next, NKIDNNKKIHRV: 0.699 ± 0.053.
Next, NKKEYHDRKKKS: 0.619 ± 0.045.
Next, NKKKKKRNKQKN: 0.762 ± 0.011; NKQKKDEKNKTE: 0.73 ± 0.17.
Consider NKREYYWINLEC, for which the protein stability index worked out at 0.562 ± 0.014.
Then NKRKIKKKKKRG, with 0.651 ± 0.088.
Then NLETDRRRTYGM, with 0.697 ± 0.036.
Next, NLETVAENMFLA: 0.71 ± 0.053; NLEVNFKNIYVK: 0.679 ± 0.038; NLPERSRANTLS: 0.6749 ± 0.0061.
In turn, NLPLPPSPFALP registered a protein stability index of 0.733 ± 0.053.
Next, NLRLYDCKVAPP: 0.691 ± 0.036.
Then NLRQKQKKIKKT, with 0.642 ± 0.041; and NLYENQDHETYR, with 0.651 ± 0.13.
Next, NMPGALETKMGV: 0.599 ± 0.054; NNIMKPKRKIIK: 0.683 ± 0.031.
NNRLSEDVLCEY returned a protein stability index of 0.665 ± 0.078.
NNTVRTPKLSIE registered a protein stability index of 0.71584 ± 0.00044.
Next, NPLRVRNNNDGL: 0.745 ± 0.047; NPLSSPSLPPSS: 0.625 ± 0.057; NPPAPPAPHLST: 0.685 ± 0.013.
NPRGAKRRNSRK came in with a protein stability index of 0.663 ± 0.058.
Next, NPSNEKERRKKN: 0.704 ± 0.02.
Next, NPYLLCKFSTLL: 0.675 ± 0.028; NQDIKAENTIKL: 0.668 ± 0.057.
Next, NQHNARTRWLCP: 0.645 ± 0.017; NQNKENKEIDRK: 0.64 ± 0.097.
As to NQSSTSEENSGG, the protein stability index came to 0.653 ± 0.024.
In the case of NQTVEQPLPTSL, the protein stability index is 0.708 ± 0.042.
Then NRAIVAYFPGMF, with 0.666 ± 0.042.
Then NRDSALGPTWAP, with 0.718 ± 0.034; and NRDSPPAGEIHA, with 0.648 ± 0.082; and NREPQPAHTHML, with 0.684 ± 0.043.
Next, NRNDKNIERRKM: 0.69 ± 0.069.
In turn, NRTGVRIEIKGR had a protein stability index of 0.636 ± 0.081.
Next, NSTLSSNATRVK: 0.727 ± 0.015; NTDSHIKIRKKI: 0.7032 ± 0.0068; NTKEETKESRGR: 0.713 ± 0.059.
Then NTPSKKHDLNRL, with 0.707 ± 0.033.
Next, NTSPTRLSCPVF: 0.616 ± 0.11.
As to NTTITKMYTKEW, the protein stability index was 0.714 ± 0.05.
Next, NVAKTTTRHNRP: 0.718 ± 0.011; NVEARLARVHWM: 0.73 ± 0.12.
Then NVEPWTRGMGSA, with 0.659 ± 0.02.
Next, NVLSGIDKRLTI: 0.71 ± 0.053; NVLVRFFSSGVW: 0.85 ± 0.047; NVRCLVELGGEV: 0.714 ± 0.058.
Turning to NWRCTLGWSWVR, the protein stability index amounted to 0.706 ± 0.058.
As for NYAMRGSVRTDK, the protein stability index worked out at 0.665 ± 0.028.
Next, NYHAIANRILAK: 0.6026 ± 0.004; NYIIRKTKERHK: 0.781 ± 0.11.
Next, NYMQVSIKNKKE: 0.641 ± 0.028.
Turning to NYNNGHNLKKER, the protein stability index stood at 0.634 ± 0.012.
NYYLPLESCTIG had a protein stability index of 0.664 ± 0.03.
Then PAAFPRPTRHAA, with 0.693 ± 0.067; and PAASRPPSPSLL, with 0.665 ± 0.046.
Next, PAAVAQAFPLIT: 0.649 ± 0.05.
Consider PACVLVRRGWYL, for which the protein stability index was 0.7277 ± 0.0029.
Next, PAGPPHPCPHPS: 0.708 ± 0.05; PAHAPSLSPPPF: 0.697 ± 0.016; PAKTEPGPLNHR: 0.68 ± 0.02.
Next, PAPLPPPPPPRP: 0.689 ± 0.015; PAPLSRPLSPTL: 0.6841 ± 0.0055; PAPPLPPPAAPP: 0.576 ± 0.0069.
Next, PAPPLPPPPSPY: 0.72 ± 0.11; PAPVFPILTPPY: 0.734 ± 0.059; PARFPPLPFPPI: 0.74 ± 0.035.
For the sequence PARPEPPRANWR, the protein stability index came out at 0.647 ± 0.058.
Then PASFAYRTLNMV, with 0.661 ± 0.082; and PASPLFAPSVVP, with 0.747 ± 0.0086; and PASPPPRTISSP, with 0.704 ± 0.064.
In the case of PASRLHSPSSPP, the protein stability index was 0.703 ± 0.038.
Next, PATPPPLPPLSP: 0.701 ± 0.054; PATQTRKETRTP: 0.69 ± 0.059; PATTVAKGSHQF: 0.717 ± 0.026.
Then PAVISLLPVWFT, with 0.691 ± 0.015; and PAWGEQYYGNVR, with 0.69 ± 0.057.
Then PAYTRDIRKPRH, with 0.654 ± 0.051.
PCAPPTPAPLHP returned a protein stability index of 0.6687 ± 0.0048.
Then PCDCAHPVLRPM, with 0.634 ± 0.069; and PCHPRPPPASPP, with 0.692 ± 0.096; and PCHSPATRTLPC, with 0.6824 ± 0.0025.
Next, PCLSRFPGSPFL: 0.6896 ± 0.0042; PCPLPSPHPPPR: 0.717 ± 0.046; PCPPHILAPPPS: 0.713 ± 0.0091.
In turn, PDGFTFVFSPES showed a protein stability index of 0.648 ± 0.038.
PDPARSPLTSSY came in with a protein stability index of 0.6569 ± 0.0024.
Sequence PDPGPPYPTPTA registered a protein stability index of 0.708 ± 0.066.
With PDPPPLLPRLSL, the protein stability index came out at 0.701 ± 0.016.
For PDPSTRASDRKR, the protein stability index came to 0.648 ± 0.017.
Next, PDPSVERFRGLC: 0.758 ± 0.095; PDRGLRLKRILP: 0.5675 ± 0.0017.
PDRLPPPLLPPL: the protein stability index amounted to 0.718 ± 0.028.
Next, PDRYPPPPGRRG: 0.704 ± 0.014; PDSHPPAPPSPP: 0.704 ± 0.031.
Then PEAEPPPPPPPP, with 0.552 ± 0.028; and PEGPTPPSLKLS, with 0.6162 ± 0.0052.
In turn, PEMCEKRIKTPT registered a protein stability index of 0.634 ± 0.031.
With PEQKKRKVKIKK, the protein stability index amounted to 0.686 ± 0.16.
For the sequence PERAPASRWTLS, the protein stability index was 0.7362 ± 0.0049.
Next, PESPLFPPLLPS: 0.6599 ± 0.0018; PESRAESAKPRD: 0.667 ± 0.019; PEVRTNKQHQER: 0.746 ± 0.055.
Then PFAGLFFFFVPF, with 0.58 ± 0.033; and PFAPFIHNFGCT, with 0.713 ± 0.023.
Next, PFAYFSRFLYFP: 0.633 ± 0.03; PFGSSPLCGSSF: 0.683 ± 0.032.
PFGTFFFPSFLL displayed a protein stability index of 0.683 ± 0.0032.
Next, PFIDCEHIRGFN: 0.735 ± 0.046.
Then PFIPPPRFPPPV, with 0.835 ± 0.074.
Then PFLIPPRPFSFP, with 0.709 ± 0.1; and PFLRLLQTVGST, with 0.593 ± 0.024.
PFLTSPPPLPLH: the protein stability index was 0.632 ± 0.031.
In turn, PFMFLSSCSGFF displayed a protein stability index of 0.735 ± 0.019.
